Literature values as cited in PMC4920389.

Target: Glu23 (UniProt position 23, FAVDEENKIGQ)
Assay: stability
Conditions: native (folded) state

For “MNEI (single-chain monellin) (Dioscoreophyllum cumminsii)”, the pKa is given as “approximately 7.5”.
